{
  "source": "patent US20100316989A1",
  "about": "“METHOD FOR SCREENING AN […] OF HBV PROLIFERATION BY USING THE INTERACTION BETWEEN HBV CAPSID AND SURFACE PROTEINS BASED ON CELLULAR IMAGING” (KOREA INSTITUTE OF SCIENCE AND TECHNOLOGY, priority 2007, published 2010)",
  "key": {"[1]": {"target": "interaction between capsid protein and PreS protein (Hepatitis B virus genotype D subtype ayw, UniProt P03146, F97I/I116L/INS152DR/S87N/V74N)", "conditions": "serially diluted peptide; Trx-PreS fixed on plate, purified capsid protein; FIG. 5"}, "[2]": {"tested_on": "interaction between PreS and capsid protein (PreS-PH / Capsid-GFP) in HEK293T cells", "type": "cell-based", "conditions": "50 μM peptide; transfected HEK293T cells; FIG. 6"}},
  "data": [
    {"sequence": "RQPTPISPPLRDSHPQAMQWNS (deleted L4b peptide) [PreS derived peptide, PreS derived peptide (ΔL4b peptide; ID; NO: 21]", "values": [
      {"measurement": "inhibition of the interaction between capsid protein and PreS protein (OD490)", "setting": "[1]", "result": "inhibited the interaction between capsid protein and PreS protein dose-dependently"},
      {"measurement": "location of GFP fluorescence image of Capsid-GFP fusion protein (inhibition of interaction)", "setting": "[2]", "result": "located not in cell membrane but in cytoplasm of cells"}
    ]}
  ]
}
